From PMC10968392, “Fluorometric and Colorimetric Method for SARS-CoV-2 Detection Using Designed Aptamer Display Particles”

Target: SARS-CoV-2 spike protein extracellular domain (ECD), biotinylated (SARS-CoV-2, UniProt P0DTC2)
Assay: bead-based flow cytometry
Conditions: protein: commercial; chain copies: 3

Row | Binder | binding result
1 | C1-AdP (SpS1-C1 displayed on magnetic particle) (ssDNA, 5' amino linkage to bead) DNA: GAACATTGGCGTCCGTGAGTGAGACCATAGTCCAGCGAACTAAACCTACCCTAAAGGGCAAGGAAGACGGGCACTTCCTCAAACGCCCAA | binds
2 | C4-AdP (SpS1-C4 displayed on magnetic particle) (ssDNA, 5' amino linkage to bead) DNA: GAACATTGGCGTCCGTGAGCAGCTCGTGGTTGTTTGCTTGTATACTTTTGTGGTTTATCTTGTTTCTGATCACTTCCTCAAACGCCCAA | binds
